The results in this text go back to article PMC7943601, “Substrate-engaged type III secretion system structures reveal gating mechanism for unfolded protein translocation” (Nature Communications, 2021).

Sequences and labels used below:
B1: SpaP (natural protein)
chain: MGNDISLIALLAFSTLLPFIIASGTCFVKFSIVFVMVRNALGLQQIPSNMTLNGVALLLSMFVMWPIMHDAYVYFEDEDVTFNDISSLSKHVDEGLDGYRDYLIKYSDRELVQFFENAQLKRQYGEETETVKRDKDEIEKPSIFALLPAYALSEIKSAFKIGFYLYLPFVVVDLVVSSVLLALGMMMMSPVTISTPIKLVLFVALDGWTLLSKGLILQYMDIAT
notes: SpaP, export apparatus protein of the S. enterica sv; Typhimurium injectisome; Five copies in the export apparatus (SpaP : Q : R 5 : 4 : 1); also called SpaP1-5; SpaP pentamer
B5: InvG (natural protein)
chain: SEKIPVTGSGFVAKDDSLRTFFDAMALQLKEPVIVSKMAARKKITGNFEFHDPNALLEKLSLQLGLIWYFDGQAIYIYDASEMRNAVVSLRNVSLNEFNNFLKRSGLYNKNYPLRGDNRKGTFYVSGPPVYVDMVVNAATMMDKQNDGIELGRQKIGVMRLNNTFVGDRTYNLRDQKMVIPGIATAIERLLQGEEQPLGNIVSSEPPAMPAFSANGEKGKAANYAGGMSLQEALKQNAAAGNIKIVAYPDTNSLLVKGTAEQVHFIEMLVKALDVAKRHVELSLWIVDLNKSDLERLGTSWSGSITIGDKLGVSLNQSSISTLDGSRFIAAVNALEEKKQATVVSRPVLLTQENVPAIFDNNRTFYTKLIGERNVALEHVTYGTMIRVLPRFSADGQIEMSLDIEDGNDKTPQSDTTTSVDALPEVGRTLISTIARVPHGKSLLVGGYTRDANTDTVQSIPFLGKLPLIGSLFRYSSKNKSNVVRVFMIEPKEIVDPLTPDASESVNNILKQSGAWSGDDKLQKWVRVYLDRGQEAIK
notes: InvG, basal body ring protein (outer rings) of the S. enterica sv; Typhimurium injectisome; modelled as G34-I173 (lower OR) and E174-G557 (upper OR); Printed as InvG_(1-15/16); the upper outer ring was built in a C15-symmetrized map; also called InvG_(1-15/16); outer rings
B6: SpaR (natural protein)
chain: MFYALYFEIHHLVASAALGFARVAPIFFFLPFLNSGVLSGAPRNAIIILVALGVWPHALNEAPPFLSVAMIPLVLQEAAVGVMLGCLLSWPFWVMHALGCIIDNQRGATLSSSIDPANGIDTSEMANFLNMFAAVVYLQNGGLVTMVDVLNKSYQLCDPMNECTPSLPPLLTFINQVAQNALVLASPVVLVLLLSEVFLGLLSRFAPQMNAFAISLTVKSGIAVLIMLLYFSPVLPDNVLRLSFQATGLSSWFYERGATHVLE
notes: SpaR, export apparatus protein of the S. enterica sv; Typhimurium injectisome; One copy in the export apparatus

What all share (experiment): cryo-EM structure
The data set “SpaR” concerns the target B6. To be noted: both partners purified.
The target of another data set is T1, PrgJ (S. enterica sv. Typhimurium (endogenous …, UniProt P41785 1-101)).
T1 construct: PrgJ, inner rod protein of the S. enterica sv; Typhimurium injectisome; Six protomers form the inner rod; also called PrgJ1-6; inner rod protein
T1 sequence (P41785 whole entry): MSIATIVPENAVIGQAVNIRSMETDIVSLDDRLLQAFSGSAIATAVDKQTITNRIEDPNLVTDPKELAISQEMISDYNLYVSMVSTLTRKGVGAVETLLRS
To be noted: both partners purified.

The data set “cryo-EM structure” concerns the molecule itself.
In the data set “SpaP” the target is B1. To be noted: both partners purified.
The target of the data set “InvG” is B5. To be noted: both partners purified.

The stoichiometry N is a count of units in the complex or per binding partner. Consider B1, for which the binding result in the data set with SpaR and with PrgJ was “binds” each time. The “stoichiometry N” value in the data set “cryo-EM structure” was 5.

B2: SpaQ (natural protein)
chain: MDDLVFAGNKALYLVLILSGWPTIVATIIGLLVGLFQTVTQLQEQTLPFGIKLLGVCLCLFLLSGWYGEVLLSYGRQVIFLALAKG
notes: also called SpaQ1-4
Regarding B2, the binding result with SpaP and with SpaR was “binds” throughout. In “cryo-EM structure”, the “stoichiometry N” value amounted to 4.

B3: PrgH (natural protein)
chain: METSKEKTITSPGPYIVRLLNSSLNGCEFPLLTGRTLFVVGQSDALTASGQLPDIPADSFFIPLDHGGVNFEIQVDTDATEIILHELKEGNSESRSVQLNTPIQVGELLILIRPESEPWVPEQPEKLETSAKKNEPRFKNGIVAALAGFFILGIGTVGTLWILNSPQRQAAELDSLLGQEKERFQVLPGRDKMLYVAAQNERDTLWARQVLARGDYDKNARVINENEENKRISIWLDTYYPQLAYYRIHFDEPRKPVFWLSRQRNTMSKKELEVLSQKLRALMPYADSVNITLMDDVTAAGQAEAGLKQQALPYSRRNHKGGVTFVIQGALDDVEILRARQFVDSYYRTWGGRYVQFAIELKDDWLKGRSFQYGAEGYIKMSPGHWYFPSPL
notes: PrgH, basal body ring protein of the S. enterica sv; Typhimurium injectisome; also called PrgH_(1-24); copies: 24
For B3, in the data set “cryo-EM structure”, the “stoichiometry N” value was determined as 24.

B4: PrgK (natural protein)
chain: CKDKDLLKGLDQEQANEVIAVLQMHNIEANKIDSGKLGYSITVAEPDFTAAVYWIKTYQLPPRPRVEIAQMFPADSLVSSPRAEKARLYSAIEQRLEQSLQTMEGVLSARVHISYDIDAGENGRPPKPVHLSALAVYERGSPLAHQISDIKRFLKNSFADVDYDNISVVLSERSDAQLQAPGTPVKRNSFATSWIVLIILLSVMSAGFGVWYYKNHYARNKKGITADDKAKSSNE
notes: PrgK, basal body ring protein of the S. enterica sv; Typhimurium injectisome; also called PrgK_(1-24); copies: 24
With B4, in the data set “cryo-EM structure”, the “stoichiometry N” value came to 24.

Regarding B5, the binding result with PrgJ was “binds”.

On to B6, for which the binding result in the data set with PrgJ was “binds”.

B7: PrgI (natural protein)
chain: MATPWSGYLDDVSAKFDTGVDNLQTQVTEALDKLAAKPSDPALLAAYQSKLSEYNLYRNAQSNTVKVFKDIDAAIIQNFR
notes: PrgI, needle filament protein of the S. enterica sv; Typhimurium injectisome; Helical filament; 72 subunits were modelled in the substrate-trapped map; also called PrgI_(1-72); needle filament protein
Turning to B7, the binding result with SpaP, in the data set with PrgJ, with InvG and in “cryo-EM structure” was “binds” each time.
